Here are results for one substance from publication PMC4783143.

What all share (experiment): NMR titration
Test [1] addresses Cx40CT (S251-V355).
For test [2], the target named is Cx43CT (S255-I382) (UniProt P08050).
The target of test [3] is Cx45CT (K265-I396) (UniProt P28229).
Chain of UniProt P28229 (P28229 265-396): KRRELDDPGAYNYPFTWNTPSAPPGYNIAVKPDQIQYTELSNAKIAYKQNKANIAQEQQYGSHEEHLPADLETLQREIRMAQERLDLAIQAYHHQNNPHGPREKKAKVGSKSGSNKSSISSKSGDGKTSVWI

Chain of UniProt P08050 (P08050 255-382): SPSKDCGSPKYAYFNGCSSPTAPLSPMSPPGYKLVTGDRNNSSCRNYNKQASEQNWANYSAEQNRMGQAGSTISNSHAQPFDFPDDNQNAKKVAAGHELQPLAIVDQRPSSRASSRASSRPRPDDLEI

Turning to “UBA domain of CIP75 (M549-S596) (from UniProt Q99NB8 549-596) (domain or fragment)”, the results for the Kd in test [1], in test [2] and in test [3] were 600 µM, 278 µM and 286 µM, respectively.
